Assay results: paper PMC4995487, “Tyrosine phosphorylation and protein degradation control the transcriptional activity of WRKY involved in benzylisoquinoline alkaloid biosynthesis”

Molecular target: GST-CjWRKY1 WT (Coptis japonica, UniProt A0ZT25 1-185)
Experiment: EMSA; 0.05 ug/ul poly(dI-dC), 1 mM MgCl2; EMSA: 20 fmol biotin probe, 3 ug protein, 1x LightShift binding buffer, 1 mM MgCl2, 0.5 mM EDTA, 0.05 ug/ul poly(dI-dC), 20 min at 4 C, 5% polyacrylamide gel; pH and salt not given
Settings: protein: recombinant; tags: N-terminal GST (pGEX-6P-1); label: biotin; blunt

GST-CjWRKY1 WT, sequence (A0ZT25 entry or part of it): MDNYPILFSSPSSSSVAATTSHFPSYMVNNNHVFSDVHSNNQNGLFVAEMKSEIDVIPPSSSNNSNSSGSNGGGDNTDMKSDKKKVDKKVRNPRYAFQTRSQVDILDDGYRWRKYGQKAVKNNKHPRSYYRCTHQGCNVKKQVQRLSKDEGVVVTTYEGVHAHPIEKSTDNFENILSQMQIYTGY

B1: 3x W-box probe (CYP80B2 promoter) (dsDNA)
DNA 1: CTGCTGACTAGCTGACTAGCTGACTAGATGG
DNA 2: CCATCTAGTCAGCTAGTCAGCTAGTCAGCAG
binding result: binds
